From PMC11210195

Key:
Experiment in all cases: SPR; Biacore T200, C1 chip, 25 °C, HBS-EP+ (10 mM HEPES, 150 mM NaCl, 3 mM EDTA, 0.05% P20, pH 7.4); antibody Fc variants captured via anti-human Fab-kappa nanobody (about 60 RU), Fc only variants amine-coupled (60-80 RU), cytokine-Fc fusions captured via anti-PGLALA F(ab')2 (35-40 RU); PRYSPRY domain injected in five two-fold dilutions from 500, 1000 or 2000 nM; global fit, Langmuir 1:1, affinity mode
[1] = target: mAb1 WT-AAA (asymmetrical human IgG1, one Fc heavy chain H310A, H433A, Y436A) (human)
[2] = target: anti-AAV2 capsid antibody A20 WT (bivalent, human IgG1 Fc WT) (human)
Chain of anti-AAV2 capsid antibody A20 WT (bivalent, human IgG1 Fc WT) (human) (heavy, as listed by the source, chain 1 of 2): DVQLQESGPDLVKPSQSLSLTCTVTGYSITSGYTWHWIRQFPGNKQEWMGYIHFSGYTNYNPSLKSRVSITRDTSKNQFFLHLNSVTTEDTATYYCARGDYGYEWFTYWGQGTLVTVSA
Chain of anti-AAV2 capsid antibody A20 WT (bivalent, human IgG1 Fc WT) (human) (light, as listed by the source, chain 2 of 2): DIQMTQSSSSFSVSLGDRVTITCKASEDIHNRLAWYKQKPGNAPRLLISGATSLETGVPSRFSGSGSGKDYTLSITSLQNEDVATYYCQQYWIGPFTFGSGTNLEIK

[3] = target: mAb1 HH-AAA (asymmetrical human IgG1, one Fc heavy chain HH, the other AAA) (human)
[4] = target: mAb1 HH (human IgG1, T307H, N434H) (human)
[5] = target: Fc WT (Fc-only variant, human IgG1 core hinge-CH2-CH3, wild type) (human)
[6] = target: mAb2 WT KiH (human IgG1, knob-into-hole, Fc wild type at the TRIM21 site) (human)
[7] = target: Ustekinumab (human)
Chain of Ustekinumab (human) (heavy, as listed by the source, chain 1 of 2): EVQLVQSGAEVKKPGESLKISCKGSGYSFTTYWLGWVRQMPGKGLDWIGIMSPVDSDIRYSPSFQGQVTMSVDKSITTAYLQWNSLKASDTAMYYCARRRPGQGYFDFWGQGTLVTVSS
Chain of Ustekinumab (human) (light, as listed by the source, chain 2 of 2): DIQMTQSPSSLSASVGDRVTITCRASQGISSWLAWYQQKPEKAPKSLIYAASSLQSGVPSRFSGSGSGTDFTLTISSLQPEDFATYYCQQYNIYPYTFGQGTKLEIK

[8] = target: mAb2 WT-AAA (asymmetrical human IgG1, one Fc heavy chain H310A, H433A, Y436A) (human)
[9] = target: mAb1 YTE-AAA (asymmetrical human IgG1, one Fc heavy chain YTE, the other AAA) (human)

Chain of TRIM21 PRYSPRY domain (P19474 277-475): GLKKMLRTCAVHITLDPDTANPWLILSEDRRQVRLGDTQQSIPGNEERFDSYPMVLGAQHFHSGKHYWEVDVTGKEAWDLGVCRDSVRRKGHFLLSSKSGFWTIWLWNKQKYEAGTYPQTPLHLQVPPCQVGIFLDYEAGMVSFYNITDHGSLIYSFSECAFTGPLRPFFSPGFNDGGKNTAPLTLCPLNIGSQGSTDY

kon [1]: 2.66e+06 M⁻¹ s⁻¹
Kd [2]: 45.6 nM
koff [2]: 0.0876 s⁻¹
kon [2]: 1.92e+06 M⁻¹ s⁻¹
Kd [3]: 120 nM
koff [3]: 0.434 s⁻¹
kon [3]: 3.63e+06 M⁻¹ s⁻¹
Kd [4]: 101 nM
koff [4]: 0.477 s⁻¹
kon [4]: 4.74e+06 M⁻¹ s⁻¹
Kd [5]: 65.1 nM
koff [5]: 0.102 s⁻¹
kon [5]: 1.57e+06 M⁻¹ s⁻¹
Kd [6]: 49.6 nM
koff [6]: 0.118 s⁻¹
kon [6]: 2.38e+06 M⁻¹ s⁻¹
Kd [7]: 42.3 nM
koff [7]: 0.104 s⁻¹
kon [7]: 2.46e+06 M⁻¹ s⁻¹
Kd [8]: 38.5 nM
koff [8]: 0.0901 s⁻¹
kon [8]: 2.34e+06 M⁻¹ s⁻¹
Kd [9]: 92.6 nM
koff [9]: 0.189 s⁻¹
kon [9]: 2.04e+06 M⁻¹ s⁻¹
Substance: TRIM21 PRYSPRY domain (from UniProt P19474-1 277-475) (domain or fragment)
